# Measurements reported in US20200040358A1 (published 2020).
# T1: NY-ESO-1 peptide on HLA-A*02:01 (human (alpha3 domain mouse))
# T1 peptide: SLLMWITQC
# T2: NY-ESO-1 peptide on HLA-B*07:02 (human)
# T2 peptide: SLLMWITQC
# T3: NY-ESO-1 peptide on HLA-A*02:01 (human)
# T3 peptide: SLLMWITQC
# Biological target: T1, NY-ESO-1 peptide on HLA-A*02:01
# Experiment: activation reporter or marker
row,binding result,Binder
1,recognises,"TCR18168 (TCR, V domains shown) Valpha: QSVAQPEDQVNVAEGNPLTVKCTYSVSGNPYLFWYVQYPNRGLQFLLKYITGDNLVKGSYGFEAEFNKSQTSFHLKKPSALVSDSALYFCAVRELYSGAGSYQLTFGKGTKLSVIP Vbeta: QKPSRDICQRGTSLTIQCQVDSQVTMMFWYRQQPGQSLTLIATANQGSEATYESGFVIDKFPISRPNLTFSTLTVSNMSPEDSSIYLCSVGGAGVTDTQYFGPGTRLTVL"

# Biological target: T2, NY-ESO-1 peptide on HLA-B*07:02
# Experiment: cytokine release
row,binding result,Binder
1,no recognition,"TCR18168 (TCR, V domains shown) Valpha: QSVAQPEDQVNVAEGNPLTVKCTYSVSGNPYLFWYVQYPNRGLQFLLKYITGDNLVKGSYGFEAEFNKSQTSFHLKKPSALVSDSALYFCAVRELYSGAGSYQLTFGKGTKLSVIP Vbeta: QKPSRDICQRGTSLTIQCQVDSQVTMMFWYRQQPGQSLTLIATANQGSEATYESGFVIDKFPISRPNLTFSTLTVSNMSPEDSSIYLCSVGGAGVTDTQYFGPGTRLTVL"

# Biological target: T3, NY-ESO-1 peptide on HLA-A*02:01
# Experiment: multimer staining
row,Binder,binding result
1,"TCR18168 (TCR, V domains shown) Valpha: QSVAQPEDQVNVAEGNPLTVKCTYSVSGNPYLFWYVQYPNRGLQFLLKYITGDNLVKGSYGFEAEFNKSQTSFHLKKPSALVSDSALYFCAVRELYSGAGSYQLTFGKGTKLSVIP Vbeta: QKPSRDICQRGTSLTIQCQVDSQVTMMFWYRQQPGQSLTLIATANQGSEATYESGFVIDKFPISRPNLTFSTLTVSNMSPEDSSIYLCSVGGAGVTDTQYFGPGTRLTVL",recognises
2,"TCR0018 (TCR, V domains shown) Valpha: QSVAQPEDQVNVAEGNPLTVKCTYSVSGNPYLFWYVQYPNRGLQFLLKYITGDNLVKGSYGFEAEFNKSQTSFHLKKPSALVSDSALYFCAVRDLSDGAGSYQLTFGKGTKLSVIP Vbeta: QKPSRDICQRGTSLTIQCQVDSQVTMMFWYRQQPGQSLTLIATANQGSEATYESGFVIDKFPISRPNLTFSTLTVSNMSPEDSSIYLCSVGGAGVTDTQYFGPGTRLTVL",recognises
3,"TCR0022 (TCR, V domains shown) Valpha: QSVAQPEDQVNVAEGNPLTVKCTYSVSGNPYLFWYVQYPNRGLQFLLKYITGDNLVKGSYGFEAEFNKSQTSFHLKKPSALVSDSALYFCAVRDDLVGAGSYQLTFGKGTKLSVIP Vbeta: QKPSRDICQRGTSLTIQCQVDSQVTMMFWYRQQPGQSLTLIATANQGSEATYESGFVIDKFPISRPNLTFSTLTVSNMSPEDSSIYLCSVGGAGVTDTQYFGPGTRLTVL",recognises
4,"TCR0032 (TCR, V domains shown) Valpha: QSVAQPEDQVNVAEGNPLTVKCTYSVSGNPYLFWYVQYPNRGLQFLLKYITGDNLVKGSYGFEAEFNKSQTSFHLKKPSALVSDSALYFCAVRDLFCGAGSYQLTFGKGTKLSVIP Vbeta: QKPSRDICQRGTSLTIQCQVDSQVTMMFWYRQQPGQSLTLIATANQGSEATYESGFVIDKFPISRPNLTFSTLTVSNMSPEDSSIYLCSVGGAGVTDTQYFGPGTRLTVL",recognises
5,"TCR0030 (TCR, V domains shown) Valpha: QSVAQPEDQVNVAEGNPLTVKCTYSVSGNPYLFWYVQYPNRGLQFLLKYITGDNLVKGSYGFEAEFNKSQTSFHLKKPSALVSDSALYFCAVRDSKAGAGSYQLTFGKGTKLSVIP Vbeta: QKPSRDICQRGTSLTIQCQVDSQVTMMFWYRQQPGQSLTLIATANQGSEATYESGFVIDKFPISRPNLTFSTLTVSNMSPEDSSIYLCSVGGAGVTDTQYFGPGTRLTVL",recognises
6,"TCR0010 (TCR, V domains shown) Valpha: QSVAQPEDQVNVAEGNPLTVKCTYSVSGNPYLFWYVQYPNRGLQFLLKYITGDNLVKGSYGFEAEFNKSQTSFHLKKPSALVSDSALYFCAVRDSFEGAGSYQLTFGKGTKLSVIP Vbeta: QKPSRDICQRGTSLTIQCQVDSQVTMMFWYRQQPGQSLTLIATANQGSEATYESGFVIDKFPISRPNLTFSTLTVSNMSPEDSSIYLCSVGGAGVTDTQYFGPGTRLTVL",recognises
7,"TCR0014 (TCR, V domains shown) Valpha: QSVAQPEDQVNVAEGNPLTVKCTYSVSGNPYLFWYVQYPNRGLQFLLKYITGDNLVKGSYGFEAEFNKSQTSFHLKKPSALVSDSALYFCAVRDLFTGAGSYQLTFGKGTKLSVIP Vbeta: QKPSRDICQRGTSLTIQCQVDSQVTMMFWYRQQPGQSLTLIATANQGSEATYESGFVIDKFPISRPNLTFSTLTVSNMSPEDSSIYLCSVGGAGVTDTQYFGPGTRLTVL",recognises
8,"TCR0070 (TCR, V domains shown) Valpha: QSVAQPEDQVNVAEGNPLTVKCTYSVSGNPYLFWYVQYPNRGLQFLLKYITGDNLVKGSYGFEAEFNKSQTSFHLKKPSALVSDSALYFCAVRELYSATVDYQLTFGKGTKLSVIP Vbeta: QKPSRDICQRGTSLTIQCQVDSQVTMMFWYRQQPGQSLTLIATANQGSEATYESGFVIDKFPISRPNLTFSTLTVSNMSPEDSSIYLCSVGGAGVTDTQYFGPGTRLTVL",recognises

# The remaining lines, values ahead:
row,binding result,Binder
1,recognises,"TCR0066 (TCR, V domains shown) Valpha: QSVAQPEDQVNVAEGNPLTVKCTYSVSGNPYLFWYVQYPNRGLQFLLKYITGDNLVKGSYGFEAEFNKSQTSFHLKKPSALVSDSALYFCAVRELYSALVTYQLTFGKGTKLSVIP Vbeta: QKPSRDICQRGTSLTIQCQVDSQVTMMFWYRQQPGQSLTLIATANQGSEATYESGFVIDKFPISRPNLTFSTLTVSNMSPEDSSIYLCSVGGAGVTDTQYFGPGTRLTVL"
2,recognises,"TCR0062 (TCR, V domains shown) Valpha: QSVAQPEDQVNVAEGNPLTVKCTYSVSGNPYLFWYVQYPNRGLQFLLKYITGDNLVKGSYGFEAEFNKSQTSFHLKKPSALVSDSALYFCAVRELYSTTFGWQLTFGKGTKLSVIP Vbeta: QKPSRDICQRGTSLTIQCQVDSQVTMMFWYRQQPGQSLTLIATANQGSEATYESGFVIDKFPISRPNLTFSTLTVSNMSPEDSSIYLCSVGGAGVTDTQYFGPGTRLTVL"
3,recognises,"TCR0020 (TCR, V domains shown) Valpha: QSVAQPEDQVNVAEGNPLTVKCTYSVSGNPYLFWYVQYPNRGLQFLLKYITGDNLVKGSYGFEAEFNKSQTSFHLKKPSALVSDSALYFCAVRSSYEGAGRYQLTFGKGTKLSVIP Vbeta: QKPSRDICQRGTSLTIQCQVDSQVTMMFWYRQQPGQSLTLIATANQGSEATYESGFVIDKFPISRPNLTFSTLTVSNMSPEDSSIYLCSVGGAGVTDTQYFGPGTRLTVL"
4,recognises,"TCR0050 (TCR, V domains shown) Valpha: QSVAQPEDQVNVAEGNPLTVKCTYSVSGNPYLFWYVQYPNRGLQFLLKYITGDNLVKGSYGFEAEFNKSQTSFHLKKPSALVSDSALYFCAVRELYSVAVRYQLTFGKGTKLSVIP Vbeta: QKPSRDICQRGTSLTIQCQVDSQVTMMFWYRQQPGQSLTLIATANQGSEATYESGFVIDKFPISRPNLTFSTLTVSNMSPEDSSIYLCSVGGAGVTDTQYFGPGTRLTVL"
5,recognises,"TCR0028 (TCR, V domains shown) Valpha: QSVAQPEDQVNVAEGNPLTVKCTYSVSGNPYLFWYVQYPNRGLQFLLKYITGDNLVKGSYGFEAEFNKSQTSFHLKKPSALVSDSALYFCAVRDMANGAGSYQLTFGKGTKLSVIP Vbeta: QKPSRDICQRGTSLTIQCQVDSQVTMMFWYRQQPGQSLTLIATANQGSEATYESGFVIDKFPISRPNLTFSTLTVSNMSPEDSSIYLCSVGGAGVTDTQYFGPGTRLTVL"
6,recognises,"TCR0024 (TCR, V domains shown) Valpha: QSVAQPEDQVNVAEGNPLTVKCTYSVSGNPYLFWYVQYPNRGLQFLLKYITGDNLVKGSYGFEAEFNKSQTSFHLKKPSALVSDSALYFCAVRDQALGAGSYQLTFGKGTKLSVIP Vbeta: QKPSRDICQRGTSLTIQCQVDSQVTMMFWYRQQPGQSLTLIATANQGSEATYESGFVIDKFPISRPNLTFSTLTVSNMSPEDSSIYLCSVGGAGVTDTQYFGPGTRLTVL"
7,recognises,"TCR0060 (TCR, V domains shown) Valpha: QSVAQPEDQVNVAEGNPLTVKCTYSVSGNPYLFWYVQYPNRGLQFLLKYITGDNLVKGSYGFEAEFNKSQTSFHLKKPSALVSDSALYFCAVRELYSRGVKWQLTFGKGTKLSVIP Vbeta: QKPSRDICQRGTSLTIQCQVDSQVTMMFWYRQQPGQSLTLIATANQGSEATYESGFVIDKFPISRPNLTFSTLTVSNMSPEDSSIYLCSVGGAGVTDTQYFGPGTRLTVL"
8,recognises,"TCR0068 (TCR, V domains shown) Valpha: QSVAQPEDQVNVAEGNPLTVKCTYSVSGNPYLFWYVQYPNRGLQFLLKYITGDNLVKGSYGFEAEFNKSQTSFHLKKPSALVSDSALYFCAVRELYSPRLMWQLTFGKGTKLSVIP Vbeta: QKPSRDICQRGTSLTIQCQVDSQVTMMFWYRQQPGQSLTLIATANQGSEATYESGFVIDKFPISRPNLTFSTLTVSNMSPEDSSIYLCSVGGAGVTDTQYFGPGTRLTVL"
9,recognises,"TCR0036 (TCR, V domains shown) Valpha: QSVAQPEDQVNVAEGNPLTVKCTYSVSGNPYLFWYVQYPNRGLQFLLKYITGDNLVKGSYGFEAEFNKSQTSFHLKKPSALVSDSALYFCAVRDLTTGAGSYQLTFGKGTKLSVIP Vbeta: QKPSRDICQRGTSLTIQCQVDSQVTMMFWYRQQPGQSLTLIATANQGSEATYESGFVIDKFPISRPNLTFSTLTVSNMSPEDSSIYLCSVGGAGVTDTQYFGPGTRLTVL"
10,recognises,"TCR0012 (TCR, V domains shown) Valpha: QSVAQPEDQVNVAEGNPLTVKCTYSVSGNPYLFWYVQYPNRGLQFLLKYITGDNLVKGSYGFEAEFNKSQTSFHLKKPSALVSDSALYFCAVRGLLNGAGSYQLTFGKGTKLSVIP Vbeta: QKPSRDICQRGTSLTIQCQVDSQVTMMFWYRQQPGQSLTLIATANQGSEATYESGFVIDKFPISRPNLTFSTLTVSNMSPEDSSIYLCSVGGAGVTDTQYFGPGTRLTVL"
